{"source": "patent US20260250398A1", "about": "(ANTLERA THERAPEUTICS, published 2026)", "target": "T1, LRP6 (low-density lipoprotein receptor-related protein 6) (UniProt O75581 20-1370, limits assumed)", "T1 sequence (looked up)": "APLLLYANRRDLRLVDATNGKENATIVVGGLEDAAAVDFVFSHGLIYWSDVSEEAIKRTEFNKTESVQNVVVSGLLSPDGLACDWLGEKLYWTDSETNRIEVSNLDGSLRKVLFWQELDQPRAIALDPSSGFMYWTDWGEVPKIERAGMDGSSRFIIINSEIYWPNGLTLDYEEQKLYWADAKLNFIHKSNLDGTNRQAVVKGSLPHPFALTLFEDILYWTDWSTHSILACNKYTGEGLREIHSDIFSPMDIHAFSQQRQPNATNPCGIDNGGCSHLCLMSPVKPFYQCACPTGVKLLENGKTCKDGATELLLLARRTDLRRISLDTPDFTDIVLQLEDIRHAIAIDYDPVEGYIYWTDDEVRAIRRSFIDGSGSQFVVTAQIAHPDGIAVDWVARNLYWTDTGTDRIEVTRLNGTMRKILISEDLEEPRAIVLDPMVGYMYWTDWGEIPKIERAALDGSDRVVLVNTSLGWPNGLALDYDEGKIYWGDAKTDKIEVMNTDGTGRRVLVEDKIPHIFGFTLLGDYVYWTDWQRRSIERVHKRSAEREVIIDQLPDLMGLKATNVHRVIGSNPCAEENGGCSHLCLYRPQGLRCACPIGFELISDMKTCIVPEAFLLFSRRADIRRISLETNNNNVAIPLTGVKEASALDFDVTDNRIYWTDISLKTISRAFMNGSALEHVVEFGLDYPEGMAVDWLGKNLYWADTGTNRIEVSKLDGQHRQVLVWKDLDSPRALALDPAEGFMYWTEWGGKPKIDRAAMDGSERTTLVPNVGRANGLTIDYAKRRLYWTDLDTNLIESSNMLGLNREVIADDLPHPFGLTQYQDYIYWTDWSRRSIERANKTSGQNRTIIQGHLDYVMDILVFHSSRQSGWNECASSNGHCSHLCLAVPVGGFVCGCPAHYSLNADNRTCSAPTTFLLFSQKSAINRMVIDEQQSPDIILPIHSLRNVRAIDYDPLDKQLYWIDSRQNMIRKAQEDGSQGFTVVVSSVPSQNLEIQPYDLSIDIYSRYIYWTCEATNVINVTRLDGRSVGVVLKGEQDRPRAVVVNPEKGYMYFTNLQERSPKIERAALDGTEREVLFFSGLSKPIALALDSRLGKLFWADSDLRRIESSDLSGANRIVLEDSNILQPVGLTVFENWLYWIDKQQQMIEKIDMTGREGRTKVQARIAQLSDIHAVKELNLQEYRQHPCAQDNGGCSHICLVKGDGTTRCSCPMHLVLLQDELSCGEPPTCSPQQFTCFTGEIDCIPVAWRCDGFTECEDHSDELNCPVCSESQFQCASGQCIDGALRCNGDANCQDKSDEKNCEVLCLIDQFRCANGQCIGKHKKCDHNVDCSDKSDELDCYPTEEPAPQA", "test": "cell-based or functional assay"}
{"binder": "CM0011 (FZD Diabody-Fc-LRP Diabody; paratopes 5019; 2539, 2542) (bispecific antibody) chain 1: MNLLLILTFVAAAVAEFEVQLVESGGGLVQPGGSLRLSCAASGFNIGSSSIHWVRQAPGKGLEWVASIYSAFASTSYADSVKGRFTISADTSKNTAYLQMNSLRAEDTAVYYCARYHFPFGFALDYWGQGTLVTVSSGGGGSDIQMTQSPSSLSASVGDRVTITCRASQSVSSAVAWYQQKPGKAPKLLIYSASSLYSGVPSRFSGSRSGTDFTLTISSLQPEDFATYYCQQGVYLFTFGQGTKVEIKLEDKTHTKVEPKSSDKTHNCPPCPAPELLGGPSVFLFPPKPKDTLMISRTPEVTCVVVDVSHEDPEVKFNWYVDGVEVHNAKTKPREEQYNSTYRVVSVLTVLHQDWLNGKEYKCKVSNKALPAPIEKTISKAKGQPREPQVYTLPPIRELMTSNQVSLSCAVKGFYPSDIAVEWESNGQPENNYKTTPPVLDSDGSFFLVSKLTVDKSRWQQGNVFSCSVMHEALHNHYTQKSLSLSPGKSGSETPGTSESATPESGGGEVQLVESGGGLVQPGGSLRLSCAASGFNISSYYIHWVRQAPGKGLEWVASIYSSYGYTSYADSVKGRFTISADTSKNTAYLQMNSLRAEDTAVYYCARTVRGSKKPYFSGWAMDYWGQGTLVTVSSGGGGSDIQMTQSPSSLSASVGDRVTITCRASQSVSSAVAWYQQKPGKAPKLLIYSASSLYSGVPSRFSGSRSGTDFTLTISSLQPEDFATYYCQQYSWGPFTFGQGTKVEIK chain 2: MNLLLILTFVAAAVAEFEVQLVESGGGLVQPGGSLRLSCAASGFNIGSSSIHWVRQAPGKGLEWVASIYSAFASTSYADSVKGRFTISADTSKNTAYLQMNSLRAEDTAVYYCARYHFPFGFALDYWGQGTLVTVSSGGGGSDIQMTQSPSSLSASVGDRVTITCRASQSVSSAVAWYQQKPGKAPKLLIYSASSLYSGVPSRFSGSRSGTDFTLTISSLQPEDFATYYCQQGVYLFTFGQGTKVEIKLEDKTHTKVEPKTSDKTHTCPPCPAPELLGGPSVFLFPPKPKDTLMISRTPEVTCVVVDVSHEDPEVKFNWYVDGVEVHNAKTKPREEQYNSTYRVVSVLTVLHQDWLNGKEYKCKVSNKALPAPIEKTISKAKGQPREPMVFDLPPSREEMTKNQVSLWCMVKGFYPSDIAVEWESNGQPENNYKTTPPVLDSDGSFFLYSKLTVDKSRWQQGNVFSCSVMHEALHNHYTQKSLSLSPGKSGSETPGTSESATPESGGGEVQLVESGGGLVQPGGSLRLSCAASGFNISYSSIHWVRQAPGKGLEWVAYISSYYGYTYYADSVKGRFTISADTSKNTAYLQMNSLRAEDTAVYYCARAHYFPWAGAMDYWGQGTLVTVSSGGGGSDIQMTQSPSSLSASVGDRVTITCRASQSVSSAVAWYQQKPGKAPKLLIYSASSLYSGVPSRFSGSRSGTDFTLTISSLQPEDFATYYCQQYYWPITFGQGTKVEIK", "values": [{"measurement": "TOPFLASH % Wnt Maxima", "value": 63, "unit": "% Wnt Maxima"}]}
